Results reported in publication PMC2741464.

B1: 30-bp duplex 30A/30C, fluorescein (polarization) (dsDNA)
DNA 1: CCCCTATCCTTTCCGCGTCCTTACTTCCCC
DNA 2: GGGGAAGTAAGGACGCGGAAAGGATAGGGG
B2: 30-bp duplex 30A/30C (EMSA) (dsDNA)
DNA 1: B1 DNA 1
DNA 2: B1 DNA 2

Assays:
[1] = molecular target: T1, Ku70/Ku80 heterodimer, wild type (human, UniProt P12956;P13010 1-609;1-732); assay: fluorescence polarization; re-reduced: 2 mM diamide then 5 mM DTT, probably nM; 50 mM Tris-HCl pH 7.8, 10 mM MgCl2, 50 mM NaCl (FP: plus 1 mM DTT, 0.5 ml; EMSA: 20 μl, 500 fmol DNA); oxidation 2 mM diamide 15 min on ice, re-reduction 5 mM DTT 15 min on ice; binding temperature not stated; settings: protein: recombinant; tags: His6 on Ku70; copies: 1;1; blunt
[2] = molecular target: T2, Ku70/80ΔC (human, UniProt P12956;P13010 1-609;1-548); assay: fluorescence polarization; reduced (control), 1 mM DTT, 10 mM Mg2+, probably nM; 50 mM Tris-HCl pH 7.8, 10 mM MgCl2, 50 mM NaCl (FP: plus 1 mM DTT, 0.5 ml; EMSA: 20 μl, 500 fmol DNA); oxidation 2 mM diamide 15 min on ice, re-reduction 5 mM DTT 15 min on ice; binding temperature not stated; settings: protein: recombinant; tags: His6 on Ku70; N-terminal His6 (pRSET B) also on Ku80ΔC per Methods; copies: 1;1; blunt
[3] = molecular target: T1, Ku70/Ku80 heterodimer, wild type; assay: as above; settings: protein: recombinant; tags: His6 on Ku70; copies: 1;1; blunt
[4] = molecular target: Ku70/Ku80 C493A (human, UniProt P12956;P13010 1-609;1-732, C493A); assay: EMSA; reduced; near wild type; 50 mM Tris-HCl pH 7.8, 10 mM MgCl2, 50 mM NaCl (FP: plus 1 mM DTT, 0.5 ml; EMSA: 20 μl, 500 fmol DNA); oxidation 2 mM diamide 15 min on ice, re-reduction 5 mM DTT 15 min on ice; binding temperature not stated; settings: protein: recombinant; tags: His6 on Ku70; copies: 1;1; label: 32P; blunt
[5] = molecular target: Ku70/Ku80 C493S (human, UniProt P12956;P13010 1-609;1-732, C493S); assay: EMSA; reduced; similar to wild type (data not shown); 50 mM Tris-HCl pH 7.8, 10 mM MgCl2, 50 mM NaCl (FP: plus 1 mM DTT, 0.5 ml; EMSA: 20 μl, 500 fmol DNA); oxidation 2 mM diamide 15 min on ice, re-reduction 5 mM DTT 15 min on ice; binding temperature not stated; settings: protein: recombinant; tags: His6 on Ku70; copies: 1;1; label: 32P; blunt
[6] = molecular target: T1, Ku70/Ku80 heterodimer, wild type; assay: EMSA; reduced (control), 10 mM Mg2+, titration was 0-150 nM so probably nM; 50 mM Tris-HCl pH 7.8, 10 mM MgCl2, 50 mM NaCl (FP: plus 1 mM DTT, 0.5 ml; EMSA: 20 μl, 500 fmol DNA); oxidation 2 mM diamide 15 min on ice, re-reduction 5 mM DTT 15 min on ice; binding temperature not stated; settings: protein: recombinant; tags: His6 on Ku70; copies: 1;1; label: 32P; blunt
[7] = molecular target: T2, Ku70/80ΔC; assay: EMSA; reduced (control), 10 mM Mg2+, probably nM; 50 mM Tris-HCl pH 7.8, 10 mM MgCl2, 50 mM NaCl (FP: plus 1 mM DTT, 0.5 ml; EMSA: 20 μl, 500 fmol DNA); oxidation 2 mM diamide 15 min on ice, re-reduction 5 mM DTT 15 min on ice; binding temperature not stated; settings: protein: recombinant; tags: His6 on Ku70; N-terminal His6 (pRSET B) also on Ku80ΔC per Methods; copies: 1;1; label: 32P; blunt

T1 sequence (P12956 whole entry, chain 1 of 2): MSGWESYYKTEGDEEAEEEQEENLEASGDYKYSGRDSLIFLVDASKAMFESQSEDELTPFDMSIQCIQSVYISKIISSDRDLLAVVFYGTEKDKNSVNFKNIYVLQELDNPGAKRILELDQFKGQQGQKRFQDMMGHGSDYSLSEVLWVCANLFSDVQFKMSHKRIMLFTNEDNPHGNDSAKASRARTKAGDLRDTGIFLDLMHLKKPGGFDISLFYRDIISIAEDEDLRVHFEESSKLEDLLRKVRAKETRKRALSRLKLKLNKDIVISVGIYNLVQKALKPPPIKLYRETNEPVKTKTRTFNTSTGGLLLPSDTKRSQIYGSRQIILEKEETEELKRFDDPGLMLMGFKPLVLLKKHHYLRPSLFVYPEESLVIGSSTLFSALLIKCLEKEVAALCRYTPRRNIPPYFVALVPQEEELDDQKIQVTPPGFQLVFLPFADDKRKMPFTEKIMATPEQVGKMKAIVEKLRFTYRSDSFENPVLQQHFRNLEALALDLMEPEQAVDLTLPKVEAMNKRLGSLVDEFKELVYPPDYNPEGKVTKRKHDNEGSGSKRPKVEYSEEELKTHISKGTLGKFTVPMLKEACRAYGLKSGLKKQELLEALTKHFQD
T1 sequence (P13010 whole entry, chain 2 of 2): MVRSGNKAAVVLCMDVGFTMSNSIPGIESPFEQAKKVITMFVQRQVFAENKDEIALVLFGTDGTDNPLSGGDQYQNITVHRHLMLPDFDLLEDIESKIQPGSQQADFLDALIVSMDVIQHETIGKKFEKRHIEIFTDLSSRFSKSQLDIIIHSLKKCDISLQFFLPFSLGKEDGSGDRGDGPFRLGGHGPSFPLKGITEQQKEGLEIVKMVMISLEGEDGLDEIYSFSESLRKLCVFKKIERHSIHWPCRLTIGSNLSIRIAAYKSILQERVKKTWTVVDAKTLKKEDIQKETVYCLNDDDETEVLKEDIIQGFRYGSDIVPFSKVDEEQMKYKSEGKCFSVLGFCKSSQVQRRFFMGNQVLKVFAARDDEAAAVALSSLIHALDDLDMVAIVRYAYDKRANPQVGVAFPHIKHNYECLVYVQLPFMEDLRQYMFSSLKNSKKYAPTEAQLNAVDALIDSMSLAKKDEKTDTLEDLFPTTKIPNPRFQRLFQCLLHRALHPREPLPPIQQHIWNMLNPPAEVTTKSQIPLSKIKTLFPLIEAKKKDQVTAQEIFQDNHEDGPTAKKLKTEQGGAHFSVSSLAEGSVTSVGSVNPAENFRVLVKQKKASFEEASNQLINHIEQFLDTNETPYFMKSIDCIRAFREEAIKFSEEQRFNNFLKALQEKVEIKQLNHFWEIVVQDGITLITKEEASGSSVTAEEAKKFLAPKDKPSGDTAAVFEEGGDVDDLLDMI
T2 sequence (P12956 whole entry, stated change not applied, chain 1 of 2): as the sequence (P12956 whole entry, chain 1 of 2) above
T2 sequence (P13010 1-548, stated change not applied, chain 2 of 2): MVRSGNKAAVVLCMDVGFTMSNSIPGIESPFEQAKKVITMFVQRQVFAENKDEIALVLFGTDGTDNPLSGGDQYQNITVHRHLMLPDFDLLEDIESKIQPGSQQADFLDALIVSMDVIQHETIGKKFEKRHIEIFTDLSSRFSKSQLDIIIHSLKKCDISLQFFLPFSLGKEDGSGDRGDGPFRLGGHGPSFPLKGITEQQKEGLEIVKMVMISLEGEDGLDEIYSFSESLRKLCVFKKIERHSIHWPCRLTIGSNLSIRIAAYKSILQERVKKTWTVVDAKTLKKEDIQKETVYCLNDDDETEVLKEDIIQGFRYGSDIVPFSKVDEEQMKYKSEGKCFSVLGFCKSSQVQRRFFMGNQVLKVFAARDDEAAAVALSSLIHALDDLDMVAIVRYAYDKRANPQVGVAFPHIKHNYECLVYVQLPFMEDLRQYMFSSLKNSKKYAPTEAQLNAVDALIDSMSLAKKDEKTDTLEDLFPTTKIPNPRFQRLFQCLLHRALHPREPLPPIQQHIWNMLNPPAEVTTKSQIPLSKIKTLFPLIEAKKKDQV
Chain of Ku70/Ku80 C493S (P12956 whole entry, chain 1 of 2): as the sequence (P12956 whole entry, chain 1 of 2) above
Chain of Ku70/Ku80 C493S (P13010 whole entry C493S, chain 2 of 2): as the sequence (P13010 whole entry, chain 2 of 2) above, with C493S counted along it
Chain of Ku70/Ku80 C493A (P12956 whole entry, chain 1 of 2): as the sequence (P12956 whole entry, chain 1 of 2) above
Chain of Ku70/Ku80 C493A (P13010 whole entry C493A, chain 2 of 2): as the sequence (P13010 whole entry, chain 2 of 2) above, with C493A counted along it

Row | Binder | Kd [1] [nM] | Kd [2] [nM] | Kd [3] [nM] | binding result [4] | binding result [5] | Kd [6] [nM] | Kd [7] [nM]
1 | B1 | 31.4 ± 3 | 25.7 ± 1.5 | 25.8 ± 2.3 |  |  |  | 
2 | B2 |  |  |  | binds | binds | 29.7 ± 2.5 | 51 ± 7.7
